The assay has as its target human CDw32 antigen (IgG Fc receptor) (human) (UniProt P12318). Kind of assay: indirect immunofluorescence on CDw32-transfected COS cells.

The values that follow come from US7119183.

UniProt P12318, sequence (P12318 34-317 H167R limits assumed, form in doubt): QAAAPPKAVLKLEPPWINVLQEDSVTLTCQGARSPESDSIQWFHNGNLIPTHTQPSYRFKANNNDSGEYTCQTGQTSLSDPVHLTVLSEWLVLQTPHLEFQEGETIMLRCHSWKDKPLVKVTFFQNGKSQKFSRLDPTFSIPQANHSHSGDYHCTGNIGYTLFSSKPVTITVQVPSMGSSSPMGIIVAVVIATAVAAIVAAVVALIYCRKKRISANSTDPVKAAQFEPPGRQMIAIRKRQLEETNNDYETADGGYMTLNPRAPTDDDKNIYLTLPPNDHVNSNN

In general, Kd refers to the constant that tells how readily two partners part at equilibrium. A high value points to lower affinity. Substance mouse IgG (antibody) yielded a Kd of 100 nM. This counts as sub-micromolar. The result for human IgG (antibody) reads 100 nM.
